# Experiment: soluble on expression in E. coli; label from the status in PepcDB or PDB records
row,Sequence,soluble on expression in E. coli
1,MQIMGLLEDKALVEAALFVAGRPLSVKELSKALGIKSLDYLEKLIELIASEYAERKSAIEVTKVAGDKWVMQVKQEYSQRVIHLMPKPELTAGELKTLALIAFLQPVEQSKIVKLRGSQAYEHIKRLLEMGLIYAEPYERTKLLGTTEKFAELYGFPENDPNLIREKFREVIHAEYEDLVKKLEETEANRNNPTT,soluble
2,MRNVDFSPLYRNAIGFDRLLNLMEANTAKNTSGGYPPYNIEQKDEHNYRITMAVAGFSEDQLDLTQNENMLIVKGERKAEEGKNYVYQGIAERDFERKFQLADYVKVTGASMENGLLHIDLVREIPEAMQPRKIAIGGNNLLESN,not soluble
3,MFTSKPAFKIKNKASKSYRNTAVSKKLKEKRLAEHVRPSCFNIIRPLKKDIQIPVPSSRFLNKIQIHRIASGSQNTQFRQFNKTSIKSSKKYLNSFMAFRAYYSQFGSGVKQNVLSSLLAEEWHADKMQHGIWDYFAQQYNFINPGFGFVEWLTNNYAEVRGDGYWEDVFVHLAL,not soluble
4,MGITVMARIDNYEQRFGGIGRLYTPDSLARLRQAHICVIGIGGVGSWVVEALARSGIGELTLIDMDDICVTNINRQLPAMSGTIGKLKTEVMSERVKLINPECTVNIIDDFISPENQSDYLNRGYDYVIDAIDNVKTKASLIAYCKRNKINVITIGGAGGQTDPTQIQIADLSKTIQDPLLAKVRSVLRKDYNFSQNPKRKFSIDAVFSTQPLIFPQMTEGCSTSATMNCANGFGAATMITATFGFFAVSRVIDKLLKKKSLEHHHHHH,not soluble
5,MGSDKIHHHHHHMAKYRIMTFDGGGTLGALSLQLLNRLARQNPKLISRTHVFSGNSIGSFTALALASGRSPRETLQYFEDEILPAFSISRPGGPVFNQQLPYSGFIKAVRNFFPADLQLIDLRKRIVVPSFKLYSQKLDRWTPVLFHNFPGSPYLNEKVSDVILRSSGAPATQRAYQNYVDGYVVATNPSTASIAFAVGKANVPLDQIAVLSIGTGEAPTRLRRDTRGWGMVSADNIRPENLKNLPPNWGVLLDRSPNEPLLPFLQMIAGGNGYYESMVSANLLGDRFFRLDPRIPNFSKTDPAVVPAVIEIANKTNLQPANQFIEKNWGSK,not soluble
6,MSGFRKDELIPVIIDIHGEKRKMFEDIADTVLRRVLDEEENECPPIESRGSSTSSFSTTPSSSASPLSINQLLSSSFSQPPAPQLPVPLAFNPFQLALYQSLVANNTLAFPVFGGPPSIFPLLVPPPQPQPTVESIELLKILQNMLAKQKK,not soluble
7,MEGLEAYDYHLPPEQIAQEGVEPRDMARLMVVYREGPFRVAHKRVRDLPEFLRPGDVLVFNESKVIPARLLARKPTGGKVEILLVRERSPGLWEALLGPARKAPPGTRLLLLSPKDLAPVPGLQAEVVAVEEDGVRLLRFQGDLVAHLEEVGEVPLPPYIKAKIPMERYQTVYARRPGSVAAPTAGLHFTPELLERLREMGVELRFLTLHVGPGTFRPVKGDPEKHEMHAEPYAIPEEVAEAVNRAKAEGRRVVAVGTTVVRALESAYREGVGVVAGEGETRLFIRPPYTFKVVDALFTNFHLPRSTLLMLVAAFLGRERTLEAYRLAVAEGYRFYSLGDAMLIL,soluble
8,MGSDKIHHHHHHMIDLKRNSKKIPIEATGLRSRKSSLYEPNQKEDFKISRGRFSNFLTCQRCFYLDRVRGLDPPGTPGWTLNETTDLLLKKEFDYCRQKQIPHRIFASNGLSHVVPFDHPEIDNWRNSLNRGLMHRYKDTGIILTGGVDDIWQDTITEQLIIVDYKSQAKNGRVDKKDYLDDPFHEAYKIQMDFYAYLLSGMGFSVHPTSYFLVCNAKRDEDEFNKTMRFDEYLVPYKWNNDWIESRLDEMVALMNQLEVPESNHSCKNCAYADQYSKIIFSGNTSQKEITQGTLPLF,not soluble
9,AFTGKFEMESEKNYDEFMKLLGISSDVIEKARNFKIVTEVQQDGQDFTWSQHYSGGHTMTNKFTVGKESNIQTMGGKTFKATVQMEGGKLVVNFPNYHQTSEIVGDKLVEVSTIGGVTYERVSKRLA,soluble
10,MTDNNTALKKAGLKVTLPRLKILEVLQEPDNHHVSAEDLYKRLIDMGEEIGLATVYRVLNQFDDAGIVTRHNFEGGKSVFELTQQHHHDHLICLDCGKVIEFSDDSIEARQREIAAKHGIRLTNHSLYLYGHCAEGDCREDEHAHEGK,soluble
11,MILSMTGFGKHTIQFADKKITATIKSLNSKQFDLSTKISSRYRDRELPLRALVSADIGRGKVDFSLFLEESGSTDVVSQIFDTEKMSSYFFQLKEFGEKMGVEVPAGGWFEQLLRIPGVIQIDEDKEEEIPEDEWAVVIETCRRALDQLIGFREQEGAMLEQVFTEKISNISSLLLQIEQYEPDRIQRIKERIEENLTKISEKDYDKNRFEQEMIYYIEKLDVNEEKHRLRNHLSYFLQTMQGEPGQGKKLSFIAQEIGREINTLGSKSNHVEMQQIVVQMKDELEQIKEQVLNVL,not soluble
12,MENSNENDIVLTWWDWGHFVTYYARRSPVAQGSPNSGVAGYYLGLVDNGWAQSLGVDYVIVSLYDILKFEAIVDTAKLSRKWENISRADYGVDFLKLTESTGSILRFDSQYSTLIVKEGNIRVILSGKVVYPREAIIESNGRIKNLKYPARSGVYVYVNLDYGYAILEHHHHHH,not soluble
13,MTSRPSSDQTWQPIDGRVALIAPASAIATDVLEATLRQLEVHGVDYHLGRHVEARYRYLAGTVEQRLEDLHNAFDMPDITAVWCLRGGYGCGQLLPGLDWGRLQAASPRPLIGFSDISVLLSAFHRHGLPAIHGPVATGLGLSPLSAPREQQERLASLASVSRLLAGIDHELPVQHLGGHKQRVEGALIGGNLTALACMAGTLGGLHAPAGSILVLEDVGEPYYRLERSLWQLLESIDARQLGAICLGSFTDCPRKEVAHSLERIFGEYAAAIEVPLYHHLPSGHGAQNRAWPYGKTAVLEGNRLRW,soluble
14,SVGTAGISLLLLWYHKVRKPGIAMKLPEFLSLGNTFNSITLQDEIHDDQGTTVIFQERQLQILEKLNELLTNMEELKEEIRFLKEAIPKLEEYIQDELGGKITVHKISPQHRARKRRLPTIQSSATSNSSEEAESEGGYITANTDTEEQSFPVPKAFNTRVEELNLDVLLQKVDHLRMSESGKSESFELLRDHKEKFRDEIEFMWRFARAYGDMYELSTNTQEKKHYANIGKTLSERAINRAPMNGHCHLWYAVLCGYVSEFEGLQNKINYGHLFKEHLDIAIKLLPEEPFLYYLKGRYCYTVSKLSWIEKKMAATLFGKIPSSTVQEALHNFLKAEELCPGYSNPNYMYLAKCYTDLEENQNALKFCNLALLLPTVTKEDKEAQKEMQKIMTSLKR,soluble
15,RAETAVQRTEDRYHNLVDTAPIPILLFDRDWKALYANEAAIAFLDADSFTEIAGKKASDFLHPDERDAARKRFQRLMREGVSVPEREYRVMTAEGEVKTATIATAPGYYRGEQVAQAMV,not soluble
16,MGSDKIHHHHHHMSSNNRKKLLLMGRSGSGKSSMRSIIFSNYSAFDTRRLGATIDVEHSHLRFLGNMTLNLWDCGGQDVFMENYFTKQKDHIFQMVQVLIHVFDVESTEVLKDIEIFAKALKQLRKYSPDAKIFVLLHKMDLVQLDKREELFQIMMKNLSETSSEFGFPNLIGFPTSIWDESLYKAWSQIVCSLIPNMSNHQSNLKKFKEIMNALEIILFERTTFLVICSSNGENSNENHDSSDNNNVLLDPKRFEKISNIMKNFKQSCTKLKSGFKTLILNNNIYVSELSSNMVCFIVLKDMNIPQELVLENIKKAKEFFQ,not soluble
17,MGSDKIHHHHHHMDYPQQHIKPYNEDGKKTEQVERMFDNIAHAYDKLNHTLSLGIDRSWRRKAIAWLRPFRPQHIMDVATGTGDFAILACRELNPDELIGTDISEGMMNVGREKVKKEGLSDKISFAREDCTSLSFADNRFDAITVAFGIRNFEDLDKGLSEMCRVLKPGGHLVILELTTPDRFPMKQLFAIYSKVVIPLLGKLLSKDNSAYHYLPDTIKVFPQGEVMKGVISKTGFGEVHFRRLTFGICTLYTATK,not soluble
18,MDTISDVQIHWRKKDYLSMSLLDDFGIAETTVKEHSVNDQIIVTLSADHRVRMIIRYEMDESHIPMIKNLVIRAFFIGSQ,soluble
19,MGSDKIHHHHHHMYSLAVNNGTLSDEQISGLVHQALADRQLDGQRILILIPDGTRTAPIPQIFRLLHQELGKRVPALDFLIALGTHNPMSEEQINHLVGVTPKERETTFKKVRIFNHLWNEPDTFISCGVISADEIAEISRGMLHQSVEVRVNKLVTQYDLIMICGPVFPHEVVGFSGGNKYFFPGIGGQEVIDISHWLGALITSYEIIGTSGITPVRRLINRAANLISTPKLCLAMVVAPKTNQLAGLYIDKPESAWEAAAKLSDKLHITYVDRSFKQVLSVMPEMYDDIWTAAKGMYKLEPVVADGGEVIIYAPHITEFSYTHGEILSQIGYHVRDYFLKQWDKFQAYPGGVLAHSTHLKGMGTFDFTEGEKARIRVTLATGISAERCAAHNLNYRDPATIRPTEWANREDEGILLVPKSGEILYRLIQA,not soluble
20,MPTDEPSKRKSILPTIPTSLMLKKSNEALSDFERTFNDRVMDIFAENRRIDVEEFKKNAECFLNIIRSNKIDLNWGEGGESRYVTITRLMKILKTSPQSIKDLLPHNTVSNFVKITNYNLTIDITLLEELVRTVIHAEESYIKLLPFSENSTEISSYSLQDFVATHFIPIMIEEPENPVYYTAYAVGTIFFLLGARRRDCVYLKDLLASTLLLQLEECIHAENHCLSPPKIDVFTVAQFRTTLSEFRFLDSQRKGLLAPADLKFFRDGIFNEVFTKRIFEISITYEDGRIDFKAFVDFVTALKFRHTTASAKYHFEILDLKDDGLLDEEEIRSISSFQLQNLPDYVPEDNSVNPEVATAELRDMMRLNQNGITLEEFLANRMNSTFAGFLSNSDDYMKYERREQ,not soluble
21,MSECLMFGMDCEARCMTSMTADEENICFLVGTNNIKNDKNQVNKLFMDPEASRLMSKTFRHPAGEVRAIAAHPTKSTILATCTADFSSLGGTHSITIWNIEEDKRTLETVSRLPTEQVMSCLEWEPNSMKCAAMTPFRPEIQLLNMENGPEIVQNLKIPLENEEDEMFSATWSPHHDGNMLGVTGGRTAWCIDCRTDNEYLKIRDAHIHRTISMDFNPNLQHVIATCGDDGYVRIWDTRSTSSALTSLHPHAHWVWSVRFHPVHDQLLLTGGSDASVVLSCAQSVSSEQQIEFRDDEEEEEDDDLVEKLQDGQLERIDEHEDSVYACAWSSADPWTFASLSYDGRMIVSNVSRKHKYALMQL,not soluble
22,MAHHHHHHMKLPYAKLEKHSRPVRCVHAEYGCTMLFCSVRCRQAGWSRFHFAGCPGAMMSDQRDAYDEFIHHDWEYRGVDYSDTVFLAFRFVCMAVTNIRLHRQSLELAYRPIAQLIKAPLSFFHFTYLFYREEADSTEKKGRGEKQIEKLRLIRWEAFRKFRATHMSTTENDTTDDFLATGMTLLGRILRFTQEECTLFTVARWSELLGAVLLNGQERSPPSNYDRLKELVRRLPCGESTMDAFEQEVQMAGNELQHLRQSSRGQGVYTVGCLFNHSCEPNLQVVYSESGDETLSVVALRDIEPGEELCISYIDESLSYPERQQELYEHYLFFCQCPKCEREAAAWEPIEPCEEVLSSAYTFSQLY,not soluble
23,MKLTLAIPSLNLDEDEIRIPLCLHAFNKILQYGSLHRQSCTASAFYARYLWCGRLVERAAQSLNMPSEAVALATPVWQKMGMHQANVLTAEYLNVGTDEAERICRDLSAFYGDIPWRFVPVLPELWLVSLPCAYRWGAKPVLDLGGLLGADDQPDGEDALEWLRVQTEIQMWLAAHPVNHNRKKRGLPELNGLWLWDGTNGGAQGGTLFADTVWSRFHSDRRALPDNFRAYEETAAHLPDTHHILFMDDLRLTALTGDRERYAAILQQWEERWFAPIYEAVRTGKIKRLDITTDGQHGGTLTFKPADRWKFWRGAKTFDGIW,not soluble

# Source: the DeepSol protein solubility set
